{"source": "paper PMC6650474", "target": "Skeletal muscle actin (chicken) (UniProt P68139)", "data": [{"substance": "Mouse utrophin residues 1-H416 with C-terminal biotin and FLAG tags (from UniProt E9Q6R7 1-416) (domain or fragment)", "values": [{"measurement": "KS of the utrophin-based loaded in vitro motility assay (utrophin concentration that arrests motion), with PfMyoA K764E on the surface, 30 °C", "value": 3.04, "unit": "nM"}, {"measurement": "KS of the utrophin-based loaded in vitro motility assay (utrophin concentration that arrests motion), with PfMyoA S19A on the surface, 30 °C", "value": 2.42, "unit": "nM"}, {"measurement": "KS of the utrophin-based loaded in vitro motility assay (utrophin concentration that arrests motion), with PfMyoA WT on the surface, 30 °C", "value": 1.4, "unit": "nM"}, {"measurement": "KS of the utrophin-based loaded in vitro motility assay (utrophin concentration that arrests motion), with PfMyoA ∆N on the surface, 30 °C", "value": 10.8, "unit": "nM"}]}]}
